According to patent US20070104726A1:

Columns and labels:
[1] = target: CD21 (CR2) on human CD21+ Raji lymphoblastoid cells (human) (UniProt P20023); test: flow cytometry on Raji cells, 100 nM; reference monomeric C3d (Calbiochem)
[2] = target: IgG constant region-CD21 fusion protein (UniProt P20023); test: ELISA, IgG constant region-CD21 fusion coated; reference monomeric C3d (Calbiochem)

linear trimer of human C3d, called C3d3 or APT2029
fold signal intensity increase against C3d (Calbiochem) [1]: 6.4 fold | fold increase in gradient of the linear portion of the binding curve against monomeric C3d [2]: 3.4 fold
